These results are taken from patent US20250281632A1, “LGALS3BP ANTIBODY-DRUG-CONJUGATE AND ITS USE FOR THE TREATMENT OF CANCER” (MEDIAPHARMA S.R.L., priority 2018, published 2025).

Experiment [1] deals with Neuroblastoma cell lines (SHSY5Y, Kelly and hNB). As to the kind of experiment: MTT cell killing assay. Format: cell-based, human. The settings on record: 72 hours, A375m melanoma cells as positive control (FIG. 19). The procedure: Neuroblastoma cell lines (SHSY5Y, Kelly and hNB) and A375m melanoma cell line were plated and treated with increasing concentrations of SH-DM3 for 72 hours. The cell killing activity of the drug was evaluated by MTT assay.

In experiment [2] the target is T1, Human recombinant LGALS3BP (human, UniProt Q08380 19-585).
T1 construct: also called 90K
T1 sequence (looked up): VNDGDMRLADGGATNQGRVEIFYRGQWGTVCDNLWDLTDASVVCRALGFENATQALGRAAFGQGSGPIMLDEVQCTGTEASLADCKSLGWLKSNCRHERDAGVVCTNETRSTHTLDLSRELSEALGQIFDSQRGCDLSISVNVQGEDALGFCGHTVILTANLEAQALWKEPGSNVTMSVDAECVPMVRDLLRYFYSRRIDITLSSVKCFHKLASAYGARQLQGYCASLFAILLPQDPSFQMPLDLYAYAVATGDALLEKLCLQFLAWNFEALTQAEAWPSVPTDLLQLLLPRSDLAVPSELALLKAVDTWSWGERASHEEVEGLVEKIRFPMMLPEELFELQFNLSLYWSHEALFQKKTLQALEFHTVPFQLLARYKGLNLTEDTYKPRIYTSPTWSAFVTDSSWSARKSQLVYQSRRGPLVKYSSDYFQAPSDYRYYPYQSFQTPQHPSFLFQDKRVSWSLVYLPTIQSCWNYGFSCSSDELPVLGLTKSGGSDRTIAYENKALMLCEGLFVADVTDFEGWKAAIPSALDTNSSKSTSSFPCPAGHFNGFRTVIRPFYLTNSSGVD
The experiment is described as follows: ELISA, plate-coated human recombinant LGALS3BP, anti-human IgG-HRP detection. The procedure:
Human recombinant LGALS3BP (2 μg/ml) was pre-coated overnight at 4° C. on 96 well-plates NUNC Maxisorp modules. […] After several washes with PBS-0, 1% Tween-20, anti-human IgG-HRP was added and incubated for 1 hour at room temperature. After washes, stabilized chromogen was added for at least 10 minutes in the dark, before stopping the reaction with the addition of 1 N H₂SO₄. The resulting color was read at 492 nm with an Elisa reader.

Experiment [3] has as its target T2, LGALS3BP at the membrane of human tumor cells (human, UniProt Q08380 19-585).
T2 construct: whole, on cells; A secreted protein that stays close to the plasma membrane; It was detected by immunofluorescence on cells; also called Gal-3BP
T2 sequence (looked up): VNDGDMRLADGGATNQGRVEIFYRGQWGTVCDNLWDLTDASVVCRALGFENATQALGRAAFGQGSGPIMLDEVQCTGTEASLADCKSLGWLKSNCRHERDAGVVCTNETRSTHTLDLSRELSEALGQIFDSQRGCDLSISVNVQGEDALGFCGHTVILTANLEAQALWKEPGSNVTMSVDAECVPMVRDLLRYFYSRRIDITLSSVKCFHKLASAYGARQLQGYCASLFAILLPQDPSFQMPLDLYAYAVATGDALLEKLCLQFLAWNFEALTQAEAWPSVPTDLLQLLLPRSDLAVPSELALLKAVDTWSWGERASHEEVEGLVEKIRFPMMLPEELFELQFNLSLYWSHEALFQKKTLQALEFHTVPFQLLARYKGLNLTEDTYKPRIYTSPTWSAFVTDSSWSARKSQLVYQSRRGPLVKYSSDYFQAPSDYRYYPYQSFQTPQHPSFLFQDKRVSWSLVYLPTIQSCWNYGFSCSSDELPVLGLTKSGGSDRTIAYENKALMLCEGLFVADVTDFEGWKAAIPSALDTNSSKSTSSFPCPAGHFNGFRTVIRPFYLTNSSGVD
The experiment is described as follows: confocal immunofluorescence on MDA-MB-231, A375 and FADU cells, anti-human IgG-Alexa Fluor 488. The procedure:
Human tumor cells were grown on glass coverslips for 24 hours. […] At the end of incubation, cells were fixed in 4% paraformaldehyde for 15 minutes at room temperature, permeabilized with 0.25% Triton X-100 for 5 minutes, and blocked with 0.1% BSA for 1 hour at room temperature. Coverslips were then incubated with anti-human IgG-Alexa Fluor 488 conjugated. DRAQ5 was used to visualize nuclei. Images were acquired with a Zeiss LSM 510 meta-confocal microscopy using 488- and 633-nm lasers. [0142] […] [0143] A-B; MDA-MB-231 breast cancer; C-D, A375 melanoma; E-F, FADU, H&N cancer; G-H, HBF, normal bronchial fibroblasts.

`COc1cc2cc(c1Cl)N(C)C(=O)C[C@H](OC(=O)C(C)N(C)C(=O)CCC(C)S)[C@]1(C)O[C@H]1[C@H](C)C1C[C@@](O)(NC(=O)O1)[C@H](OC)/C=C/C=C(\C)C2` (some centres unmarked) [SH DM3]: the cell killing activity result in experiment [1] is “potent cell killing activity”.

B1: Antibody 1959-sss (C220S-C226S-C229S) (antibody, V domains shown)
VH: QVQLQESGPGLVKPSETLSLTCAVSGYSISSGYYWTWIRQPPGKGLEWIGYITYDGKNNYSPSLKNRVTISVDTSKNQFSLKLSSVTAADTAVYYCAREGSSVITTGFTFWGQGTLVTVSS
VL: DIQMTQSPSTLSASVGDRVTITCSASSRVSYMYWYQQKPGKAPKLLIYLTSNLASGVPARFSGSGSGTEFTLTISSLQPDDFATYYCQQWTSHPPTFGQGTKVEVKR
notes: Humanized SP-2 on a human IgG framework, with the hinge cysteines 220, 226 and 229 changed to serine, so no interchain disulfides; Made in CHO cells
As to B1, the binding result in experiment [2] and in experiment [3] was “binds” in each case.

B2: 1959-sss-DM3 (antibody, V domains shown)
VH: QVQLQESGPGLVKPSETLSLTCAVSGYSISSGYYWTWIRQPPGKGLEWIGYITYDGKNNYSPSLKNRVTISVDTSKNQFSLKLSSVTAADTAVYYCAREGSSVITTGFTFWGQGTLVTVSS
VL: DIQMTQSPSTLSASVGDRVTITCSASSRVSYMYWYQQKPGKAPKLLIYLTSNLASGVPARFSGSGSGTEFTLTISSLQPDDFATYYCQQWTSHPPTFGQGTKVEVKR
modifications: maytansinoid DM3 joined by a disulfide bond to a cysteine of the light chain (DAR 2; light chain mass 24053 Da against 23261 Da reduced); residue number not given
notes: also called Ab1959-SSS-DM3
On to B2, for which the binding result in experiment [2] and in experiment [3] was “binds” in each case.
